For the data set, the target named is Thrombin (human alpha-thrombin) (Homo sapiens, UniProt P00734;P00734 P00734:328-363,P00734:364-622). The experiment in a line: nanopore without motor protein; lower-current events with increasing thrombin concentration.

B1: 29-mer thrombin-binding aptamer (TBA) with 30xT threading strand (ssDNA)
DNA: TTTTTTTTTTTTTTTTTTTTTTTTTTTTTTAGTCCGTGGTAGGGCAGGTTGGGGTGACT
For the molecule B1, the binding result was “binds”.

These data come from patent US20250283153 (published 2025).
